Here are results for seven variants from publication PMC3748058 (2013).

Sequences and labels used below:
B1: GFP lamin A WT [human] / GST Nesprin-2 SR52,53 [human] (parent complex)
chain 1: METPSQRRATRSGAQASSTPLSPTRITRLQEKEDLQELNDRLAVYIDRVRSLETENAGLRLRITESEEVVSREVSGIKAAYEAELGDARKTLDSVAKERARLQLELSKVREEFKELKARNTKKEGDLIAAQARLKDLEALLNSKEAALSTALSEKRTLEGELHDLRGQVAKLEAALGEAKKQLQDEMLRRVDAENRLQTMKEELDFQKNIYSEELRETKRRHETRLVEIDNGKQREFESRLADALQELRAQHEDQVEQYKKELEKTYSAKLDNARQSAERNSNLVGAAHEELQQSRIRIDSLSAQLSQLQKQLAAKEAKLRDLEDSLARERDTSRRLLAEKEREMAEMRARMQQQLDEYQELLDIKLALDMEIHAYRKLLEGEEERLRLSPSPTSQRSRGRASSHSSQTQGGGSVTKKRKLESTESRSSFSQHARTSGRVAVEEVDEEGKFVRLRNKSNEDQSMGNWQIKRQNGDDPLLTYRFPPKFTLKAGQVVTIWAAGAGATHSPPTDLVWKAQNTWGCGNSLRTALINSTGEEVAMRKLVRSVTVVEDDEDEDGDDLLHHHHGSHCSSSGDPAEYNLRSRTVLCGTCGQPADKASASGSGAQVGGPISSGSSASSVTVTRSYRSVGGSGGGSFGDNLVTRSYLLGNSSPRTQSPQNCSIM
chain 2: SRFEDWLKSAERTAACPNSSEVLYTSAKEELKRFEAFQRQIHERLTQLELINKQYRRLARENRTDTASRLKQMVHEGNQRWDNLQRRVTAVLRRLRHFTNQREEFEGTRESILVWLTEMDLQLTNVEHFSESDADDKMRQLNGFQQEITLNTNKIDQLIVFGEQLIQKSEPLDAVLIEDELEELHRYCQEVFGRVSRFHRRL

Variants of B1 are the subject of this assay. Briefly: GST pull-down, western blot quantification; COS7 cell lysates; four to seven independent experiments; parent: 0; read off a plot.
Turning to chain 1 R419C, the screen value is approximately -10%.

With chain 1 G413C, the screen value is approximately -22%. Consider chain 1 L421P, for which the screen value was approximately -29%. In the case of chain 1 V415I, the screen value is approximately 55%. In the case of chain 1 G411D, the screen value was approximately 11%. As to chain 1 R401C, the screen value was approximately 51%. As for chain 1 R427G, the screen value is approximately -15%.
